For test [1], the target named is T1, GST fusion of the cytoplasmic domain of human desmoglein-3 (human, UniProt P32926 641-999).
T1 construct: cytoplasmic domain of human desmoglein-3, cloned by PCR from HaCaT cells into pGEX-4T1; worked out from the printed primers: the forward primer begins with the codons for LTCDCGA, the reverse primer holds the stop codon (ends DPCSRLI-stop); also called Dsg3 tail; cytoplasmic tail of Dsg3; source: E. coli Rosetta (DE3) pLysS, purified (glutathione sepharose)
T1 sequence (looked up): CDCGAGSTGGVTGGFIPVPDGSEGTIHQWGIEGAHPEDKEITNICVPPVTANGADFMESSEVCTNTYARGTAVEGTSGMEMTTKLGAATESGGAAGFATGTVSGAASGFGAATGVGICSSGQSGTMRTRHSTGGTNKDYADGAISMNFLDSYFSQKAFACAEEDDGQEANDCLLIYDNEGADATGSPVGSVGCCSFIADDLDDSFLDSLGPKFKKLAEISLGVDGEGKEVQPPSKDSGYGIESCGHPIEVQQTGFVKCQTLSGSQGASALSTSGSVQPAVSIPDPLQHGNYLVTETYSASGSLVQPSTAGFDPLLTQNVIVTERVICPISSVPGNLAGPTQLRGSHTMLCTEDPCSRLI
Put plainly: pull-down; GST-tagged cytoplasmic domains of Dsg1-3 immobilised on glutathione sepharose, HaCaT lysate (1 mg), overnight at 4 °C; 10 mM Tris-HCl pH 8.0, 150 mM NaCl, 5 mM EDTA, 0.5% Triton X-100, 60 mM N-octylglucoside; Western blot; GST as negative control. The conditions noted are these: one partner purified. A general note: A western blot detects proteins with antibodies after separation by electrophoresis.

Test [2] deals with T2, flotillin-1-GST fusion (rat, full length) (rat, UniProt Q9Z1E1 1-428).
T2 construct: full length rat flotillin-1 in the pET41a vector; pET41a may add further tags (His, S-tag) besides GST (surmised); also called Flot-GST; flotillin-GST; source: E. coli Rosetta (DE3) pLysS, purified (glutathione sepharose, eluted with reduced glutathione)
T2 sequence (looked up): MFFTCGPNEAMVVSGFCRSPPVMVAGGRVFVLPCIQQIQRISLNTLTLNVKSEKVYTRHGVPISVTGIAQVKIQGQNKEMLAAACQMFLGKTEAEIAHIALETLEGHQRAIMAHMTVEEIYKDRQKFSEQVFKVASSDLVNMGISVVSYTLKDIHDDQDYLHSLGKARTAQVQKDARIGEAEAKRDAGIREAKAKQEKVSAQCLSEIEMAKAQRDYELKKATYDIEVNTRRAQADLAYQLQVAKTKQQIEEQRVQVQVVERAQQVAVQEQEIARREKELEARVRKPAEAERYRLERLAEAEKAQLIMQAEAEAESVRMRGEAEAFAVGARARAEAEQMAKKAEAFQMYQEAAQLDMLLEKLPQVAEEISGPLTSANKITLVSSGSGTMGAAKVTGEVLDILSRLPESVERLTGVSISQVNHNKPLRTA
The experiment in a line: pull-down; Dsg3-MBP (5 μg) immobilised on amylose resin, eluted flotillin-GST proteins in solution; 50 mM Tris-HCl pH 7.5, 150 mM NaCl, 0.01% Triton X-100, 1 mM DTT, 1 mM EDTA, 1% BSA, on ice 2-3 h; Western blot; MBP and GST as controls. The conditions noted are these: both partners purified.

B1: flotillin-2 (natural protein, human (endogenous in HaCaT), UniProt Q14254 1-428, looked up)
chain: MGNCHTVGPNEALVVSGGCCGSDYKQYVFGGWAWAWWCISDTQRISLEIMTLQPRCEDVETAEGVALTVTGVAQVKIMTEKELLAVACEQFLGKNVQDIKNVVLQTLEGHLRSILGTLTVEQIYQDRDQFAKLVREVAAPDVGRMGIEILSFTIKDVYDKVDYLSSLGKTQTAVVQRDADIGVAEAERDAGIREAECKKEMLDVKFMADTKIADSKRAFELQKSAFSEEVNIKTAEAQLAYELQGAREQQKIRQEEIEIEVVQRKKQIAVEAQEILRTDKELIATVRRPAEAEAHRIQQIAEGEKVKQVLLAQAEAEKIRKIGEAEAAVIEAMGKAEAERMKLKAEAYQKYGDAAKMALVLEALPQIAAKIAAPLTKVDEIVVLSGDNSKVTSEVNRLLAELPASVHALTGVDLSKIPLIKKATGVQV
notes: flotillin-2, endogenous in human HaCaT keratinocytes; also called Flot-2; source: endogenous, HaCaT lysate
With B1, the “relative amount pulled down (normalised to the fusion protein), against the Dsg1 and Dsg2 pulldowns” value in test [1] is ~2 fold.

B2: Dsg3-MBP fusion protein (domain or fragment, human, UniProt P32926 641-999, looked up)
chain: CDCGAGSTGGVTGGFIPVPDGSEGTIHQWGIEGAHPEDKEITNICVPPVTANGADFMESSEVCTNTYARGTAVEGTSGMEMTTKLGAATESGGAAGFATGTVSGAASGFGAATGVGICSSGQSGTMRTRHSTGGTNKDYADGAISMNFLDSYFSQKAFACAEEDDGQEANDCLLIYDNEGADATGSPVGSVGCCSFIADDLDDSFLDSLGPKFKKLAEISLGVDGEGKEVQPPSKDSGYGIESCGHPIEVQQTGFVKCQTLSGSQGASALSTSGSVQPAVSIPDPLQHGNYLVTETYSASGSLVQPSTAGFDPLLTQNVIVTERVICPISSVPGNLAGPTQLRGSHTMLCTEDPCSRLI
notes: cytoplasmic domain of human desmoglein-3, cloned by PCR from HaCaT cells into pMAL-c2X; worked out from the printed primers: the forward primer begins with the codons for LTCDCGA, the reverse primer holds the stop codon (ends DPCSRLI-stop); source: E. coli Rosetta (DE3) pLysS, purified (amylose resin)
Take B2: the binding result in test [2] is recorded as “binds”.

B3: flotillin-1 (natural protein, human (endogenous in HaCaT), UniProt O75955 1-427, looked up)
chain: MFFTCGPNEAMVVSGFCRSPPVMVAGGRVFVLPCIQQIQRISLNTLTLNVKSEKVYTRHGVPISVTGIAQVKIQGQNKEMLAAACQMFLGKTEAEIAHIALETLEGHQRAIMAHMTVEEIYKDRQKFSEQVFKVASSDLVNMGISVVSYTLKDIHDDQDYLHSLGKARTAQVQKDARIGEAEAKRDAGIREAKAKQEKVSAQYLSEIEMAKAQRDYELKKAAYDIEVNTRRAQADLAYQLQVAKTKQQIEEQRVQVQVVERAQQVAVQEQEIARREKELEARVRKPAEAERYKLERLAEAEKSQLIMQAEAEAASVRMRGEAEAFAIGARARAEAEQMAKKAEAFQLYQEAAQLDMLLEKLPQVAEEISGPLTSANKITLVSSGSGTMGAAKVTGEVLDILTRLPESVERLTGVSISQVNHKPLRTA
notes: flotillin-1, endogenous in human HaCaT keratinocytes; also called Flot-1; source: endogenous, HaCaT lysate
Consider B3, for which the “relative amount pulled down (normalised to the fusion protein), against the Dsg1 and Dsg2 pulldowns” value in test [1] is ~2 fold.
